Experiment [1] addresses T1, ubiquitin aldehyde (Ubal) (UniProt P0CG47 1-76, C-terminal residue as aldehyde). In words: competition: wild type yeast lysate pre-incubated with increasing Ubal, then [^125I]-UbVS labeling. The text has this:
Reactions were quenched with sample buffer, resolved by 10% SDS-PAGE and analyzed by autoradiography. Identity of bands was assigned based on the absence of a band corresponding to the molecular weight of a DUB deleted in that strain.

Experiment [2] deals with T1, ubiquitin aldehyde (Ubal). Briefly: competition: lysate pre-treated with Ubal, then [^125I]-UbVS labeling.

We go through six molecules from patent US20050277762A1 (published 2005).

B1: Ubp2 (enzyme, S. cerevisiae, UniProt Q01476 1-1272, looked up)
chain: MPNEDNELQKAIENHHNQLLNQDKENADRNGSVIEDLPLYGTSINQQSTPGDVDDGKHLLYPDIATNLPLKTSDRLLDDILCDTIFLNSTDPKVMQKGLQSRGILKESMLSYSTFRSSIRPNCLGSLTDQVVFQTKSEYDSISCPKYNKIHVFQAVIFNPSLAEQQISTFDDIVKIPIYHLKVSVKVRQELERLKKHVGVTQFHSLDHLHEYDRVDLSTFDSSDPNLLDYGIYVSDDTNKLILIEIFKPEFNSPEEHESFTADAIKKRYNAMCVKNESLDKSETPSQVDCFYTLFKIFKGPLTRKSKAEPTKTIDSGNLALNTHLNPEWLTSKYGFQASSEIDEETNEIFTEYVPPDMVDYVNDLETRKIRESFVRKCLQLIFWGQLSTSLLAPNSPLKNTKSVKGMSSLQTSFSTLPWFHLLGESRARILLNSNEQTHSPLDAEPHFINLSVSHYYTDRDIIRNYESLSSLDPENIGLYFDALTYIANRKGAYQLIAYCGKQDIIGQEALENALLMFKINPKECNISELNEATLLSIYKYETSNKSQVTSNHLTNLKNALRLLAKYTKSDKLKFYVDHEPYRALSQAYDTLSIDESVDEDIIKTAYSVKINDSPGLKLDCDRALYTIAISKRSLDLFNFLTEECPQFSNYYGPEKLDYQEALKLLQVNENASDETILKIFKQKWFDENVYEPDQFLILRAALTKISIERNSTLITNFLLTGTIDPNSLPPENWPTGINNIGNTCYLNSLLQYYFSIAPLRRYVLEYQKTVENFNDHLSNSGHIRRIGGREISRGEVERSIQFIYQLRNLFYAMVHTRERCVTPSKELAYLAFAPSNVEVEFEVEGNKVVDQTGVLSDSKKETTDDAFTTKIKDTSLIDLEMEDGLNGDVGTDANRKKNESNDAEVSENEDTTGLTSPTRVAKISSDQLENALEMGRQQDVTECIGNVLFQIESGSEPIRYDEDNEQYDLVKQLFYGTTKQSIVPLSATNKVRTKVERFLSLLINIGDHPKDIYDAFDSYFKDEYLTMEEYGDVIRTVAVTTFPTILQVQIQRVYYDRERLMPFKSIEPLPFKEVIYMDRYADTENPLLLAKKKETEEMKQKLKVMKNRQRELLSRDDSGLTRKDAFLESIKLLESDTIKKTPLKIEAANDVIKTLRNNVQNIDNELMKLYNDINSLEEKISHQFDDFKEYGYSLFSVFIHRGEASYGHYWIYIKDRNRNGIWRKYNDETISEVQEEEVFNFNEGNTATPYFLVYVKQGQEGDIEPLKRILK
notes: also called Ubp2p
For the molecule B1, in experiment [1], the binding result is “binds”.

B2: Ubp1 (enzyme, S. cerevisiae, UniProt P25037 1-809, looked up)
chain: MDLFIESKINSLLQFLFGSRQDFLRNFKTWSNNNNNLSIYLLIFGIVVFFYKKPDHLNYIVESVSEMTTNFRNNNSLSRWLPRSKFTHLDEEILKRGGFIAGLVNDGNTCFMNSVLQSLASSRELMEFLDNNVIRTYEEIEQNEHNEEGNGQESAQDEATHKKNTRKGGKVYGKHKKKLNRKSSSKEDEEKSQEPDITFSVALRDLLSALNAKYYRDKPYFKTNSLLKAMSKSPRKNILLGYDQEDAQEFFQNILAELESNVKSLNTEKLDTTPVAKSELPDDALVGQLNLGEVGTVYIPTEQIDPNSILHDKSIQNFTPFKLMTPLDGITAERIGCLQCGENGGIRYSVFSGLSLNLPNENIGSTLKLSQLLSDWSKPEIIEGVECNRCALTAAHSHLFGQLKEFEKKPEGSIPEKLINAVKDRVHQIEEVLAKPVIDDEDYKKLHTANMVRKCSKSKQILISRPPPLLSIHINRSVFDPRTYMIRKNNSKVLFKSRLNLAPWCCDINEINLDARLPMSKKEKAAQQDSSEDENIGGEYYTKLHERFEQEFEDSEEEKEYDDAEGNYASHYNHTKDISNYDPLNGEVDGVTSDDEDEYIEETDALGNTIKKRIIEHSDVENENVKDNEELQEIDNVSLDEPKINVEDQLETSSDEEDVIPAPPINYARSFSTVPATPLTYSLRSVIVHYGTHNYGHYIAFRKYRGCWWRISDETVYVVDEAEVLSTPGVFMLFYEYDFDEETGKMKDDLEAIQSNNEEDDEKEQEQKGVQEPKESQEQGEGEEQEEGQEQMKFERTEDHRDISGKDVN
notes: also called Ubp1p
With B2, the binding result in experiment [1] was “binds”.

B3: Ubp6 (enzyme, S. cerevisiae, UniProt P43593 1-499, looked up)
chain: MSGETFEFNIRHSGKVYPITLSTDATSADLKSKAEELTQVPSARQKYMVKGGLSGEESIKIYPLIKPGSTVMLLGTPDANLISKPAKKNNFIEDLAPEQQVQQFAQLPVGFKNMGNTCYLNATLQALYRVNDLRDMILNYNPSQGVSNSGAQDEEIHKQIVIEMKRCFENLQNKSFKSVLPIVLLNTLRKCYPQFAERDSQGGFYKQQDAEELFTQLFHSMSIVFGDKFSEDFRIQFKTTIKDTANDNDITVKENESDSKLQCHISGTTNFMRNGLLEGLNEKIEKRSDLTGANSIYSVEKKISRLPKFLTVQYVRFFWKRSTNKKSKILRKVVFPFQLDVADMLTPEYAAEKVKVRDELRKVEKEKNEKEREIKRRKFDPSSSENVMTPREQYETQVALNESEKDQWLEEYKKHFPPNLEKGENPSCVYNLIGVITHQGANSESGHYQAFIRDELDENKWYKFNDDKVSVVEKEKIESLAGGGESDSALILMYKGFGL
notes: also called Ubp6p
For the molecule B3, the binding result in experiment [1] is “binds”.

B4: USP14 (TGT) (enzyme, mouse (EL-4 cell lysate), UniProt Q9JMA1 1-493, looked up)
chain: MPLYSVTVKWGKEKFEGVELNTDEPPMVFKAQLFALTGVQPARQKVMVKGGTLKDDDWGNIKMKNGMTVLMMGSADALPEEPSAKTVFVEDMTEEQLATAMELPCGLTNLGNTCYMNATVQCIRSVPELKDALKRYAGALRASGEMASAQYITAALRDLFDSMDKTSSSIPPIILLQFLHMAFPQFAEKGEQGQYLQQDANECWIQMMRVLQQKLEAIEDDSGRETDSSSAPAVTPSKKKSLIDQYFGVEFETTMKCTESEEEEVTKGKENQLQLSCFINQEVKYLFTGLKLRLQEEITKQSPTLQRNALYIKSSKISRLPAYLTIQMVRFFYKEKESVNAKVLKDVKFPLMLDVYELCTPELQEKMVSFRSKFKDLEDKKVNQQPNANDKNSPPKEIKYEPFSFADDIGSNNCGYYDLQAVLTHQGRSSSSGHYVSWVRRKQDEWIKFDDDKVSIVTPEDILRLSGGGDWHIAYVLLYGPRRVEIMEEESEQ
notes: also called p58
With B4, the binding result in experiment [2] was “binds”.

B5: Ubp15 (enzyme, S. cerevisiae, UniProt P50101 1-1230, looked up)
chain: MSSEDELGSIGTVFPGSPIDKSIGSILPQFDEEVETLLEDSFTWNIPDWNELTNPKYNSPRFRIGDFEWDILLFPQGNHNKGVAVYLEPHPEEKLDETTGEMVPVDPDWYCCAQFAIGISRPGNGDTINLINKSHHRFNALDTDWGFANLIDLNNLKHPSKGRPLSFLNEGTLNITAYVRILKDPTGVLWHNFLNYDSKKVTGYVGFRNQGATCYLNSLLQSYFFTKYFRKLVYEIPTEHESPNNSVPLALQRAFYQLQVSDIPLDTLELTRSFGWDTAESFTQHDVQELNRILMDRLENNMKGTPVEGKLNEIFVGKMKSYIKCINVDYESARVEDFWDLQLNVKNFKNLQESFDNYIEMELMNGENQYAAQDYGLQDAQKGVIFESFPPVLHLQLKRFEYDFNYDQMVKVNDKYEFPETIDLSPFVDKDVLKKTLDSENKDKNPYVYNLHGVLVHSGDISTGHYYTLIKPGVEDQWYRFDDERVWRVTKKQVFQENFGCDRLPDEKVRTMTRGEYQNYIIQRHTSAYMLVYIRQEQEEDLLRPVLESDVPKHVITRVREEIKERETKEKEIREAHLYVTLRLHSIKEFIHYEGFDYFAHDGFRLFAEELNDSGLQQINLKVLRTTKLSDIFASIKETMNIPQERDVKYWKMDYRRNSTLRLTQPINFESVNITLQEALKKEKKRTMQTQYGEEGVASTEEDDKALLETVSFLDLFIEEPYLELQFLNKLKEASLISKAQLDDELISTIRTNLPELTKGGIEPVFATDNKSNLLFVKSYDPHTQKLLGFGHFAVNQLQQLSDISAIIEDSISSNEKLTFYEEVQPGTINEIYMKETIYDADIDTGDIVSFEVPGAVLPDTFPVYATIKDFYSYLRYRVKLKFSKFDGSSEEYGVSNEIPESFEFWISAYAPYDDLARMVSKYAHVKPEYLKIIALYSNGRFVLKSTSLLNDYLLKDFNCDQIPPFAFEVLSVPLKELERLRPIKLYWLKNSYIHYQCFEFEVANDYTESQFLEKVQHKIGFTDEEKENILLWTNTNFQFQGLLSDQNTFKDVSKHSLLFGRILPEESKLFKELNRLENVQTSSLEDFMDDENATDRPMDDEQDLGMAIEHSEDMKGRIVVVQQYFKDLENRHGISFLFNLIPDETFPKTKDRLHAKFGLGQKEFSKIKLSIGYSTEEGTVFRSLQGFSDEELDKVILYDIMSNLDYIYMDHPDRLRSHSSYDRPMIIKN
notes: also called Ubp15p
As for B5, the binding result in experiment [1] is reported as “binds”.

B6: Yuh1 (enzyme, S. cerevisiae, UniProt P35127 1-236, looked up)
chain: MSGENRAVVPIESNPEVFTNFAHKLGLKNEWAYFDIYSLTEPELLAFLPRPVKAIVLLFPINEDRKSSTSQQITSSYDVIWFKQSVKNACGLYAILHSLSNNQSLLEPGSDLDNFLKSQSDTSSSKNRFDDVTTDQFVLNVIKENVQTFSTGQSEAPEATADTNLHYITYVEENGGIFELDGRNLSGPLYLGKSDPTATDLIEQELVRVRVASYMENANEEDVLNFAMLGLGPNWE
notes: also called Yuh1p
Consider B6, for which the binding result in experiment [1] is “binds”.
